Results from patent US12138315 (Daiichi Sankyo, dated 2024).

B1: hmAb-H11L11-DXd (antibody, V domains shown)
VH: EVQLVQSGAEVKKPGASVKVSCKASGYSFTDYNMYWVRQAPGQSLEWMGYIDPYNGDTTYNQKFQGRVTITADTSTSTAYMELSSLRSEDTAVYYCARSPYGHYAMDYWGQGTLVTVSS
VL: DIQMTQSPSSLSASVGDRVTITCKASQDVSTAVDWYQQKPGKAPKLLINWASTRHTGVPSRFSGSGSGTDFTLTISSLQPEDFATYYCRQHYSTPFTFGQGTKVEIKR
modifications: drug linker on sulfhydryl groups of reduced interchain disulfide cysteines; positions not given; drug linker (maleimidocaproyl-GGFG-DXd, exatecan derivative) on sulfhydryl groups of reduced interchain disulfide cysteines by thioether bond; average number of conjugated drug molecules per antibody 7.4 to 7.7 (common procedure F); positions not given
notes: also called hmAb-H11L11-ADC
B2: hmAb-H11aL11 (antibody, human IgG1, kappa, V domains shown)
VH: EVQLVQSGAEVKKPGASVKVSCKASGYSFTDYNMYWVRQAPGQSLEWMGYIDPYNGDTTYNQKFQGRVTITADKSKSTAYMELSSLRSEDTAVYYCARSPYGHYAMDYWGQGTLVTVSS
VL: DIQMTQSPSSLSASVGDRVTITCKASQDVSTAVDWYQQKPGKAPKLLINWASTRHTGVPSRFSGSGSGTDFTLTISSLQPEDFATYYCRQHYSTPFTFGQGTKVEIKR
notes: Unconjugated humanized IgG1 kappa antibody; also called anti-CD37 humanized antibody having hmAb-H11a as a heavy chain and hmAb-L11 as a light chain
B3: hmAb-H11aL11-DXd (antibody, human IgG1, kappa, V domains shown)
VH: EVQLVQSGAEVKKPGASVKVSCKASGYSFTDYNMYWVRQAPGQSLEWMGYIDPYNGDTTYNQKFQGRVTITADKSKSTAYMELSSLRSEDTAVYYCARSPYGHYAMDYWGQGTLVTVSS
VL: DIQMTQSPSSLSASVGDRVTITCKASQDVSTAVDWYQQKPGKAPKLLINWASTRHTGVPSRFSGSGSGTDFTLTISSLQPEDFATYYCRQHYSTPFTFGQGTKVEIKR
modifications: drug linker on sulfhydryl groups of reduced interchain disulfide cysteines; positions not given; drug linker (maleimidocaproyl-GGFG-DXd, exatecan derivative) on sulfhydryl groups of reduced interchain disulfide cysteines by thioether bond; average number of conjugated drug molecules per antibody 7.6 (common procedure F); positions not given
notes: also called hmAb-H11aL11-ADC
B4: hmAb-H541L11 (antibody, human IgG1, kappa, V domains shown)
VH: EVQLVQSGAEVKKPGASVKVSCKASGYSFTDYNMYWVRQAPGQSLEWMGYIDPYNGDTTYNQKFQGRVTMTRDTSISTAYMELSRLRSDDTAVYYCARSPYGHYAMDYWGQGTTVTVSS
VL: DIQMTQSPSSLSASVGDRVTITCKASQDVSTAVDWYQQKPGKAPKLLINWASTRHTGVPSRFSGSGSGTDFTLTISSLQPEDFATYYCRQHYSTPFTFGQGTKVEIKR
notes: Unconjugated humanized IgG1 kappa antibody; also called anti-CD37 humanized antibody having hmAb-H541 as a heavy chain and hmAb-L11 as a light chain
B5: hmAb-H541L11-DXd (antibody, human IgG1, kappa, V domains shown)
VH: EVQLVQSGAEVKKPGASVKVSCKASGYSFTDYNMYWVRQAPGQSLEWMGYIDPYNGDTTYNQKFQGRVTMTRDTSISTAYMELSRLRSDDTAVYYCARSPYGHYAMDYWGQGTTVTVSS
VL: DIQMTQSPSSLSASVGDRVTITCKASQDVSTAVDWYQQKPGKAPKLLINWASTRHTGVPSRFSGSGSGTDFTLTISSLQPEDFATYYCRQHYSTPFTFGQGTKVEIKR
modifications: drug linker on sulfhydryl groups of reduced interchain disulfide cysteines; positions not given; drug linker (maleimidocaproyl-GGFG-DXd, exatecan derivative) on sulfhydryl groups of reduced interchain disulfide cysteines by thioether bond; average number of conjugated drug molecules per antibody 7.8 (common procedure F); positions not given
notes: also called hmAb-H541L11-ADC
B6: hmAb-H551L11 (antibody, human IgG1, kappa, V domains shown)
VH: EVQLVQSGAEVKKPGASVKVSCKASGYSFTDYNMYWVRQAPGQSLEWMGYIDPYNGDTTYNQKFQGRVTMTRDTSSSTAYMELSRLRSDDTAVYYCARSPYGHYAMDYWGQGTTVTVSS
VL: DIQMTQSPSSLSASVGDRVTITCKASQDVSTAVDWYQQKPGKAPKLLINWASTRHTGVPSRFSGSGSGTDFTLTISSLQPEDFATYYCRQHYSTPFTFGQGTKVEIKR
notes: Unconjugated humanized IgG1 kappa antibody; also called anti-CD37 humanized antibody having hmAb-H551 as a heavy chain and hmAb-L11 as a light chain
B7: hmAb-H551L11-DXd (antibody, human IgG1, kappa, V domains shown)
VH: EVQLVQSGAEVKKPGASVKVSCKASGYSFTDYNMYWVRQAPGQSLEWMGYIDPYNGDTTYNQKFQGRVTMTRDTSSSTAYMELSRLRSDDTAVYYCARSPYGHYAMDYWGQGTTVTVSS
VL: DIQMTQSPSSLSASVGDRVTITCKASQDVSTAVDWYQQKPGKAPKLLINWASTRHTGVPSRFSGSGSGTDFTLTISSLQPEDFATYYCRQHYSTPFTFGQGTKVEIKR
modifications: drug linker on sulfhydryl groups of reduced interchain disulfide cysteines; positions not given; drug linker (maleimidocaproyl-GGFG-DXd, exatecan derivative) on sulfhydryl groups of reduced interchain disulfide cysteines by thioether bond; average number of conjugated drug molecules per antibody 7.8 (common procedure F); positions not given
notes: also called hmAb-H551L11-ADC
B8: hmAb-H11L11 (antibody, human IgG1, kappa, V domains shown)
VH: EVQLVQSGAEVKKPGASVKVSCKASGYSFTDYNMYWVRQAPGQSLEWMGYIDPYNGDTTYNQKFQGRVTITADTSTSTAYMELSSLRSEDTAVYYCARSPYGHYAMDYWGQGTLVTVSS
VL: DIQMTQSPSSLSASVGDRVTITCKASQDVSTAVDWYQQKPGKAPKLLINWASTRHTGVPSRFSGSGSGTDFTLTISSLQPEDFATYYCRQHYSTPFTFGQGTKVEIKR
notes: Unconjugated humanized IgG1 kappa antibody derived from mouse HH1; also called anti-CD37 humanized antibody having hmAb-H11 as a heavy chain and hmAb-L11 as a light chain

Each binder was assayed against T1, human CD37 protein (human, UniProt P11049 1-281) (assay: flow cytometry on OCI-LY7 cells, FITC anti-human IgG Fc secondary).
T1 construct: Four-pass transmembrane tetraspanin
T1 sequence: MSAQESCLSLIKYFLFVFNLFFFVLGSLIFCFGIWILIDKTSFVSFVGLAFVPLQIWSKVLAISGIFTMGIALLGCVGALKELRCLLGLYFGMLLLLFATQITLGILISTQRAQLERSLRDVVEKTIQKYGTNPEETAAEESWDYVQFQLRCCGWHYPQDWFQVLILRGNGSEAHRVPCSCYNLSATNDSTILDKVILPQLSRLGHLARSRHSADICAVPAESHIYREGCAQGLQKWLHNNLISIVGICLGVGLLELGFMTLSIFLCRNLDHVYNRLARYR
Method: 4)-1 Evaluation of Binding Activity of Humanized Anti-CD37 Antibody-Drug Conjugate The binding activity of the four antibody-drug conjugates (clone names: hmAb-H11L11-DXd, hmAb-H541L11-DXd, hmAb-H551L11-DXd, and hmAb-H11aL11-DXd) produced in Example 2 was evaluated by flow cytometry. CD37-positive human diffuse large B-cell lymphoma cell line OCI-LY7 (DSMZ) cultured in IMDM medium supplemented with 20% FBS under conditions of 37° C. and 5% CO_2 were recovered and centrifuged. After removal of the supernatant, the cells were suspended by the addition of each of the four antibody-drug conjugates or a negative control antibody-drug conjugate (hmAb-IgG1-DXd) produced using human IgG at each concentration. The cells were left standing at 4° C. for 1 hour. The cells were washed twice with PBS supplemented with 5% FBS, and then suspended by the addition of FLUORESCEIN (FITC)-AffiniPure F(ab')2 Fragment Goat Anti-Human IgG, Fcγ Fragment Specific (Jackson ImmunoResearch Laboratories, Inc.) that had been 100-fold diluted with PBS supplemented with 5% FBS. The cells were left standing at 4° C. for 30 minutes. The cells were washed twice with PBS supplemented with 5% FBS, followed by detection using a flow cytometer (BD LSRFortessa TM X-20, BD Biosciences). The data was analyzed using FlowJo (Tree Star, Inc.). In FIG. 6, the abscissa depicts antibody concentration (μg/ml), and the ordinate depicts the amount of the antibody bound by MFI (mean fluorescence intensity).

Binding result, binds:
B1
B2
B3
B4
B5
B6
B7
B8
